In patent US20210388087A1 (Chugai, published 2021):

T1: Human CD3eg linker (human)
T1 construct: Single chain: epsilon and gamma subunits of human CD3 joined by a 29-mer linker, Flag-tag at the C-terminus; also called recombinant human CD3
T1 chain: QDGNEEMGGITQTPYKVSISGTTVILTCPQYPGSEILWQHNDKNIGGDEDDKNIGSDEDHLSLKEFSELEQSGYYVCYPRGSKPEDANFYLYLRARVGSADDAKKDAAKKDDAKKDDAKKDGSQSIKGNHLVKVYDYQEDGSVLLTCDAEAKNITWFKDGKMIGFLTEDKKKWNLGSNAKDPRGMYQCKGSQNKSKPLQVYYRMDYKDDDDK


Target: T1, Human CD3eg linker
Test: Biacore SPR, vs template H183/L072

fold change of affinity | Binder
0 fold | H183/L072 VH I51L (antibody, name in Kabat numbering, V domains shown) VH: QVQLVESGGGLVQPGRSLRLSCAASGFTFSNAWMHWVRQAPGKGLEWVAQLKDKGNAYAAYYAPSVKGRFTISRDDSKNSIYLQMNSLKTEDTAVYYCHYVHYASASTVLPAFGVDAWGQGTTVTVSS VL: DIVMTQSPLSLPVTPGEPASISCQASQELVHMNRNTYLHWYQQKPGQAPRLLIYKVSNRFPGVPDRFSGSGSGTDFTLKISRVEAEDVGVYYCAQGTSVPFTFGQGTKLEIK
0 fold | H183/L072 VH I51A (antibody, name in Kabat numbering, V domains shown) VH: QVQLVESGGGLVQPGRSLRLSCAASGFTFSNAWMHWVRQAPGKGLEWVAQAKDKGNAYAAYYAPSVKGRFTISRDDSKNSIYLQMNSLKTEDTAVYYCHYVHYASASTVLPAFGVDAWGQGTTVTVSS VL: DIVMTQSPLSLPVTPGEPASISCQASQELVHMNRNTYLHWYQQKPGQAPRLLIYKVSNRFPGVPDRFSGSGSGTDFTLKISRVEAEDVGVYYCAQGTSVPFTFGQGTKLEIK
0 fold | H183/L072 VH H96P (antibody, name in Kabat numbering, V domains shown) VH: QVQLVESGGGLVQPGRSLRLSCAASGFTFSNAWMHWVRQAPGKGLEWVAQIKDKGNAYAAYYAPSVKGRFTISRDDSKNSIYLQMNSLKTEDTAVYYCHYVPYASASTVLPAFGVDAWGQGTTVTVSS VL: DIVMTQSPLSLPVTPGEPASISCQASQELVHMNRNTYLHWYQQKPGQAPRLLIYKVSNRFPGVPDRFSGSGSGTDFTLKISRVEAEDVGVYYCAQGTSVPFTFGQGTKLEIK
0 fold | H183/L072 VH I51E (antibody, name in Kabat numbering, V domains shown) VH: QVQLVESGGGLVQPGRSLRLSCAASGFTFSNAWMHWVRQAPGKGLEWVAQEKDKGNAYAAYYAPSVKGRFTISRDDSKNSIYLQMNSLKTEDTAVYYCHYVHYASASTVLPAFGVDAWGQGTTVTVSS VL: DIVMTQSPLSLPVTPGEPASISCQASQELVHMNRNTYLHWYQQKPGQAPRLLIYKVSNRFPGVPDRFSGSGSGTDFTLKISRVEAEDVGVYYCAQGTSVPFTFGQGTKLEIK
0 fold | H183/L072 VH I51G (antibody, name in Kabat numbering, V domains shown) VH: QVQLVESGGGLVQPGRSLRLSCAASGFTFSNAWMHWVRQAPGKGLEWVAQGKDKGNAYAAYYAPSVKGRFTISRDDSKNSIYLQMNSLKTEDTAVYYCHYVHYASASTVLPAFGVDAWGQGTTVTVSS VL: DIVMTQSPLSLPVTPGEPASISCQASQELVHMNRNTYLHWYQQKPGQAPRLLIYKVSNRFPGVPDRFSGSGSGTDFTLKISRVEAEDVGVYYCAQGTSVPFTFGQGTKLEIK
0 fold | H183/L072 VH H93M (antibody, name in Kabat numbering, V domains shown) VH: QVQLVESGGGLVQPGRSLRLSCAASGFTFSNAWMHWVRQAPGKGLEWVAQIKDKGNAYAAYYAPSVKGRFTISRDDSKNSIYLQMNSLKTEDTAVYYCMYVHYASASTVLPAFGVDAWGQGTTVTVSS VL: DIVMTQSPLSLPVTPGEPASISCQASQELVHMNRNTYLHWYQQKPGQAPRLLIYKVSNRFPGVPDRFSGSGSGTDFTLKISRVEAEDVGVYYCAQGTSVPFTFGQGTKLEIK
0 fold | H183/L072 VH H93A (antibody, name in Kabat numbering, V domains shown) VH: QVQLVESGGGLVQPGRSLRLSCAASGFTFSNAWMHWVRQAPGKGLEWVAQIKDKGNAYAAYYAPSVKGRFTISRDDSKNSIYLQMNSLKTEDTAVYYCAYVHYASASTVLPAFGVDAWGQGTTVTVSS VL: DIVMTQSPLSLPVTPGEPASISCQASQELVHMNRNTYLHWYQQKPGQAPRLLIYKVSNRFPGVPDRFSGSGSGTDFTLKISRVEAEDVGVYYCAQGTSVPFTFGQGTKLEIK
0 fold | H183/L072 VH H96I (antibody, name in Kabat numbering, V domains shown) VH: QVQLVESGGGLVQPGRSLRLSCAASGFTFSNAWMHWVRQAPGKGLEWVAQIKDKGNAYAAYYAPSVKGRFTISRDDSKNSIYLQMNSLKTEDTAVYYCHYVIYASASTVLPAFGVDAWGQGTTVTVSS VL: DIVMTQSPLSLPVTPGEPASISCQASQELVHMNRNTYLHWYQQKPGQAPRLLIYKVSNRFPGVPDRFSGSGSGTDFTLKISRVEAEDVGVYYCAQGTSVPFTFGQGTKLEIK
0 fold | H183/L072 VH H96L (antibody, name in Kabat numbering, V domains shown) VH: QVQLVESGGGLVQPGRSLRLSCAASGFTFSNAWMHWVRQAPGKGLEWVAQIKDKGNAYAAYYAPSVKGRFTISRDDSKNSIYLQMNSLKTEDTAVYYCHYVLYASASTVLPAFGVDAWGQGTTVTVSS VL: DIVMTQSPLSLPVTPGEPASISCQASQELVHMNRNTYLHWYQQKPGQAPRLLIYKVSNRFPGVPDRFSGSGSGTDFTLKISRVEAEDVGVYYCAQGTSVPFTFGQGTKLEIK

Continued, binder first:

Binder | fold change of affinity
H183/L072 VH H35Y (antibody, name in Kabat numbering, V domains shown) VH: QVQLVESGGGLVQPGRSLRLSCAASGFTFSNAWMYWVRQAPGKGLEWVAQIKDKGNAYAAYYAPSVKGRFTISRDDSKNSIYLQMNSLKTEDTAVYYCHYVHYASASTVLPAFGVDAWGQGTTVTVSS VL: DIVMTQSPLSLPVTPGEPASISCQASQELVHMNRNTYLHWYQQKPGQAPRLLIYKVSNRFPGVPDRFSGSGSGTDFTLKISRVEAEDVGVYYCAQGTSVPFTFGQGTKLEIK | 0 fold
H183/L072 VH H93P (antibody, name in Kabat numbering, V domains shown) VH: QVQLVESGGGLVQPGRSLRLSCAASGFTFSNAWMHWVRQAPGKGLEWVAQIKDKGNAYAAYYAPSVKGRFTISRDDSKNSIYLQMNSLKTEDTAVYYCPYVHYASASTVLPAFGVDAWGQGTTVTVSS VL: DIVMTQSPLSLPVTPGEPASISCQASQELVHMNRNTYLHWYQQKPGQAPRLLIYKVSNRFPGVPDRFSGSGSGTDFTLKISRVEAEDVGVYYCAQGTSVPFTFGQGTKLEIK | 0 fold
H183/L072 VH I51K (antibody, name in Kabat numbering, V domains shown) VH: QVQLVESGGGLVQPGRSLRLSCAASGFTFSNAWMHWVRQAPGKGLEWVAQKKDKGNAYAAYYAPSVKGRFTISRDDSKNSIYLQMNSLKTEDTAVYYCHYVHYASASTVLPAFGVDAWGQGTTVTVSS VL: DIVMTQSPLSLPVTPGEPASISCQASQELVHMNRNTYLHWYQQKPGQAPRLLIYKVSNRFPGVPDRFSGSGSGTDFTLKISRVEAEDVGVYYCAQGTSVPFTFGQGTKLEIK | 1 fold
H183/L072 VH I51D (antibody, name in Kabat numbering, V domains shown) VH: QVQLVESGGGLVQPGRSLRLSCAASGFTFSNAWMHWVRQAPGKGLEWVAQDKDKGNAYAAYYAPSVKGRFTISRDDSKNSIYLQMNSLKTEDTAVYYCHYVHYASASTVLPAFGVDAWGQGTTVTVSS VL: DIVMTQSPLSLPVTPGEPASISCQASQELVHMNRNTYLHWYQQKPGQAPRLLIYKVSNRFPGVPDRFSGSGSGTDFTLKISRVEAEDVGVYYCAQGTSVPFTFGQGTKLEIK | 0 fold
H183/L072 VH H93L (antibody, name in Kabat numbering, V domains shown) VH: QVQLVESGGGLVQPGRSLRLSCAASGFTFSNAWMHWVRQAPGKGLEWVAQIKDKGNAYAAYYAPSVKGRFTISRDDSKNSIYLQMNSLKTEDTAVYYCLYVHYASASTVLPAFGVDAWGQGTTVTVSS VL: DIVMTQSPLSLPVTPGEPASISCQASQELVHMNRNTYLHWYQQKPGQAPRLLIYKVSNRFPGVPDRFSGSGSGTDFTLKISRVEAEDVGVYYCAQGTSVPFTFGQGTKLEIK | 0 fold
H183/L072 VH H93I (antibody, name in Kabat numbering, V domains shown) VH: QVQLVESGGGLVQPGRSLRLSCAASGFTFSNAWMHWVRQAPGKGLEWVAQIKDKGNAYAAYYAPSVKGRFTISRDDSKNSIYLQMNSLKTEDTAVYYCIYVHYASASTVLPAFGVDAWGQGTTVTVSS VL: DIVMTQSPLSLPVTPGEPASISCQASQELVHMNRNTYLHWYQQKPGQAPRLLIYKVSNRFPGVPDRFSGSGSGTDFTLKISRVEAEDVGVYYCAQGTSVPFTFGQGTKLEIK | 0 fold
H183/L072 VH I51F (antibody, name in Kabat numbering, V domains shown) VH: QVQLVESGGGLVQPGRSLRLSCAASGFTFSNAWMHWVRQAPGKGLEWVAQFKDKGNAYAAYYAPSVKGRFTISRDDSKNSIYLQMNSLKTEDTAVYYCHYVHYASASTVLPAFGVDAWGQGTTVTVSS VL: DIVMTQSPLSLPVTPGEPASISCQASQELVHMNRNTYLHWYQQKPGQAPRLLIYKVSNRFPGVPDRFSGSGSGTDFTLKISRVEAEDVGVYYCAQGTSVPFTFGQGTKLEIK | 0 fold
H183/L072 VH I51M (antibody, name in Kabat numbering, V domains shown) VH: QVQLVESGGGLVQPGRSLRLSCAASGFTFSNAWMHWVRQAPGKGLEWVAQMKDKGNAYAAYYAPSVKGRFTISRDDSKNSIYLQMNSLKTEDTAVYYCHYVHYASASTVLPAFGVDAWGQGTTVTVSS VL: DIVMTQSPLSLPVTPGEPASISCQASQELVHMNRNTYLHWYQQKPGQAPRLLIYKVSNRFPGVPDRFSGSGSGTDFTLKISRVEAEDVGVYYCAQGTSVPFTFGQGTKLEIK | 0.3 fold
H183/L072 VH H96M (antibody, name in Kabat numbering, V domains shown) VH: QVQLVESGGGLVQPGRSLRLSCAASGFTFSNAWMHWVRQAPGKGLEWVAQIKDKGNAYAAYYAPSVKGRFTISRDDSKNSIYLQMNSLKTEDTAVYYCHYVMYASASTVLPAFGVDAWGQGTTVTVSS VL: DIVMTQSPLSLPVTPGEPASISCQASQELVHMNRNTYLHWYQQKPGQAPRLLIYKVSNRFPGVPDRFSGSGSGTDFTLKISRVEAEDVGVYYCAQGTSVPFTFGQGTKLEIK | 0.1 fold
H183/L072 VH I51H (antibody, name in Kabat numbering, V domains shown) VH: QVQLVESGGGLVQPGRSLRLSCAASGFTFSNAWMHWVRQAPGKGLEWVAQHKDKGNAYAAYYAPSVKGRFTISRDDSKNSIYLQMNSLKTEDTAVYYCHYVHYASASTVLPAFGVDAWGQGTTVTVSS VL: DIVMTQSPLSLPVTPGEPASISCQASQELVHMNRNTYLHWYQQKPGQAPRLLIYKVSNRFPGVPDRFSGSGSGTDFTLKISRVEAEDVGVYYCAQGTSVPFTFGQGTKLEIK | 0 fold
H183/L072 VH H96A (antibody, name in Kabat numbering, V domains shown) VH: QVQLVESGGGLVQPGRSLRLSCAASGFTFSNAWMHWVRQAPGKGLEWVAQIKDKGNAYAAYYAPSVKGRFTISRDDSKNSIYLQMNSLKTEDTAVYYCHYVAYASASTVLPAFGVDAWGQGTTVTVSS VL: DIVMTQSPLSLPVTPGEPASISCQASQELVHMNRNTYLHWYQQKPGQAPRLLIYKVSNRFPGVPDRFSGSGSGTDFTLKISRVEAEDVGVYYCAQGTSVPFTFGQGTKLEIK | 0.3 fold
